This assay has as its target T1, EGFR on A431 cell line (overexpresses EGFR) (UniProt P00533 25-1210).
T1 construct: whole, on cells; also called A431 cells; cells overexpressing EGFR
The experiment in a line: cell ELISA on A431 cells attached to the plate, antibody titrated. The protocol:
Binding capacity between the antibody obtained in 5 and the A431 cell line (ATCC) which overexpresses EGFR is determined by ELISA [Biological efficacy of a chimeric antibody to the epidermal growth factor receptor in a human tumor xenograft model, Clinic. Cancer res., 1995, vol. 1, 1311-1318] (the entire contents of which are incorporated herein by reference). The protocol for the ELISA assay is similar to that described in 6 above, except that antibody was used over a range of concentration and A431 cells were attached to the plate.
On the technique in general: An ELISA detects its analyte on a solid surface through an enzyme-linked reagent.

B1: Erbb1 78 clone antibody (fully human full-length IgG) (antibody, V domains shown)
VH: QMQLVQSGGGVVRPGGSLRLSCAASGFTFDDYGMSWVRQAPGKGLEWVSGINWNGGSTGYADSVKGRFTISRDNAKNSLYLQMNSLRAEDTAVYYCARDYWGSLDYWGQGTLITVSS
VL: QSALTQPASVSGSPGQSITISCTGTSSDVGGYNYVSWYQQNSGKAPKLMIHDVNRRPSGVSNRFSGSKSGNTASLTIAGLQADDEADYYCSSYVSTNTYVFGTGTKVTVL
notes: also called Erbb1-78 antibody
Turning to B1, the Kd amounted to 1.09 nM. This counts as single-digit nanomolar.

What is called Kd is a measure of binding affinity in units of concentration.

Values taken from patent publication US20110280883A1 (SAMSUNG ELECTRONICS, published 2011).
